Results taken from the nanobody polyreactivity screen of Harvey et al. (2022).

Assay: yeast display, Sf9 membrane polyspecificity reagent, FACS + sequencing; frameworks hold sequencing errors
Procedure, shortened: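 Polyreactivity labels are assigned by the sorting gate from which each nanobody was recovered. The gates were low and high (top ~1%), set on anti-HA fluorescence for expression and streptavidin fluorescence for reagent binding. Before sorting, galactose-induced (36–48 hours) yeast display cells were stained for 1 hour at 4 °C with 10% biotinylated, detergent-solubilized Sf9 membrane reagent.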

Row | Sequence | polyreactivity (PSR sort gate)
1 | QVQLVESGGRLVQAGGSLRLSCAASGSIFRSYAMGWYRQAPGKERELVATISSSTGSTYYADSVKGRFTISRDNAKNTVYLQRNSLKPEDTAVYYCNAQRRWSIYGYFYYWGQGTQVTVSS | high polyreactivity
2 | QVQLVESGGRLVQAGGSLRLSCAASGSIFSGYTMGWYRQAPGKERELVAAISSDGSTTYADSVKGRFTISRDNAKNTVYLQLNSLKPEDSAVYYSAAYPYWDGSYGGYDYWGQGTQVTVSS | low polyreactivity
3 | QVQLVESGGRLVQAGGSLRLSCAASGSTFGPYTMGWYRQAPGKERELVATISSGGSTYYADSVKGRFTISRDNAKNTVYLQMNSLKPEDTAVYYCAARYWSIYDYWGQGTQVTVSS | low polyreactivity
4 | QVQLVESGGRLVQAGGSLRLSCAASGSTFGWYTMGWYRQAPGKERELVAAITSRGTRTSYADSVKARFTISRDNAKNTVYLQMNSLKPEDTAVYYCAARVFRGLGEYYWGQGTQVTVSS | high polyreactivity
5 | QVQLVESGGRLVQAGGSLRLSCAASGSTFPLYARGWCRQAPGKERELVAAITGGGGRTYYADSVKGRFTISRDNAKNTVYLQMNSLKPEDTGVYYCNAVVYLTNYWYDYWGQGTQVTVSS | low polyreactivity
6 | QVQLVESGGRLVQAGGSLRLSCAASGSTFVYYAMGWYRQAPGKERELVASINSGGSTYYADSVKGRFTISRDNAKNTVYLQMNSLKQEDTAVYDCAATSIPPSVHLQDPTYDYWGQGTQVTVSS | low polyreactivity
7 | QVQLVESGGRLVQAGGSLRLSCAASGSTIKSYAMGWYRQAPGKERELVAGITSGDSTNYADSVKGRFTISRDNAKNTVYFQMNSLKPDDTAVYYCNAVTQARYYYWGQGYQVTVSS | low polyreactivity
8 | QVQLVESGGRLVQAGGSLRLSCADSGRTFYLYAMGWYRQAPGKEREFVADITFSGASTDYAASVKGRFTISRDNAKNTVYLQMNSLKPEDTAVYYCNADIAHVCWWSYPTDDYWGQGTQVTVSS | high polyreactivity
9 | QVQLVESGGRLVQAGGSLRLSCAPSGIIFIWNTMGWYRQAPGKESEFVAAISRSGSGTSYADSVKGRFTISRDNAKNTVYLQMNSLKPEDTAVYYCAARLECPYDMYYWGQGTQVTVSS | low polyreactivity
10 | QVQLVESGGRLVQAGGSLRLSCAPSGRIFWAYAMGWYRPAPGKERELVAAITSGGSTYYADSVKGRFTISRDNAKNTVYLQMNSLKPEDTAVYYCAVGSKWVDDSPEDVYWGQGTQVTVSS | low polyreactivity
11 | QVQLVESGGRLVQAGGSLRLSGAASGSTIQTNVMGWYRQAPGKERELLAAISSGGSTNYADSVKGRFTISRDNAKNNVYLQMNSLKPEDTADYYCAKRWPYFRRGKDGYCGQGTQVTVSS | low polyreactivity
12 | QVQLVESGGRLVQAGGSLRLSSAASGSTFSFYVMRWYRQAPGKERELVAAISWSSVGTYSADSVKGRFTISRDNAKNTVYLQMNSLKPEDTAVYYCAADSYRRVAKHGYWGQGTQVTVSS | high polyreactivity
13 | QVQLVESGGRLVQAGGSLSLSCASSGRIFWTYAMGLTRQAPGEERELVAAINSSDGTYYADSVKGRFTISRDNAKNTVYLQKNSLKPEDTAVYYCNADRDALVGYDYDYWGQGTQVTVSS | low polyreactivity
14 | QVQLVESGGRLVQAGGTLPLSSAASGLIFGYYAMGFYIQAPGKERELDADISSGGSTNYADSVKGRFTISRENAKNTVYLQMNRLTPEDTAVFYCAARYSRWFGYCGQGTQVTVSS | high polyreactivity
15 | QVQLVESGGRLVQAGGTLRLSCAASGSICGFNAMGWYRQAPGKERELVAAINNGGSKNYADSVKGRFTISRDNAKITVYLQMKILKQEDTEVYYCAARLNYIRRGYWGQGTQVTVSS | high polyreactivity
16 | QVQLVESGGRLVQAGVILRLSCAASGSTFAPYAMGWYRQSPGKESELVATISASGGTTYYADSVKGRFTISRDNAKNTVYLQMNSLKPEDTAVYYCNADSNWYDQWNYYGLNDYWGQGTQVTVSS | low polyreactivity
17 | QVQLVESGGRLVQAGVSLRISSAASGYISRVYAMGWYRHAPGKERELVAAITRSTTYYADSVKGRFTISRDNAKNTVYLQMNSLKPEDTAVDYCNADWASPGQVRMYYWGQGTQVTVSS | high polyreactivity
18 | QVQLVESGGRLVQARGSLRLICAASGLIIAYYTMGWYRQAPGKEREFVAVIDWIGVSTYYADSVKGRFTISRDNAKNTVYLQMNSLKPEDTAVYYCNADNAFPSPKSSLDYWGQGTQVTVSS | low polyreactivity
19 | QVQLVESGGRLVQARGSLRLSCAASGRIFYDYAMGCYRQAPGKESELVAAISGSGGSTYYADSVKGRFTISRDNAKNTVYLQMNSLKPEDTAVYYCNRYTTRYYPGGDYWGQGTQVTVSS | high polyreactivity
20 | QVQLVESGGRLVQPGGSLRLSCAASGRTFVLNAIGWYRQAPGKEREFVAAISWGGVRTDYADSVKGRFTISRDNAKNTVYLQMNSLKPEDTAVYYCATSGSRYRRYDYWGQGTQVTVSS | high polyreactivity
21 | QVQLVESGGRLVQSGGSLRLICAASGQIFQWYAMGWYRQAPGKETELVAAISSGDSTYYADSVTGRFTISRDNAKNTVYLDMNSLKPEDTAVDYCNARAIGWRIYDYWGQGTEVTVSS | high polyreactivity

Row | Sequence | polyreactivity (PSR sort gate)
22 | QVQLVESGGRLVQSGGSLRLSCAASGRTIVENAMGLYRQAPGKEREFVAAISYKGGSTYYADSVKGRFTISRDNAKNTVYFQMNSLNPEDTAVYYCAADPNYGYDYWGQGTQVTVST | low polyreactivity
23 | QVQLVESGGSLVQAGGSLRLSCAASGSIFFYYAMGWYRQAPGKERELVAAISWSGGSTYYADSVKGRFTISRDNAKNTVYLQMNSLKPEDTAVYYCAADRPYAGRYWKGYHSALYDYWGQGTQVTVSS | low polyreactivity
24 | QVQLVESGGSLVQAGGSLRLSCAASGSTFDYYAMGWYRQAPGKARELHAAIDWSGDSTYYADSVKGRFTISRDNAKNTVYLQMNSLKREDSAVYYCPADLDSRGTYGRYEYWGQGTQVTVSS | low polyreactivity
25 | QVQLVESGGSLVQAGGSLRVSCAASRSIFEHYAMGWYRQAHGKERELVATISSASRTHYADSVKGRFTISRDNAKNTVYLQRNSLKREDTAVYYCAARLYYVWYAPYYYWGQGTQVSVSS | high polyreactivity
26 | QVQLVESGGSLVQEGGSLRLSCAASGRTYNVMGWDRQAPGKERELVAAITWGGGSTHYADSVKGRFTISRDNAKNTVYVQMNSLKPEDTAVYYCAADLLYKSTRVDYWGQGTQVTVSS | low polyreactivity
27 | QVQLVESGGVFDQARGSLRLSCAASGSIFAIYAMGWYRQAPGKERELVAAISRSGGRTYYADSVKGRFTISRDNAKNTVYLQMNSLKPEDTAVYYCAAQGVSSGFRYRGGYWGQGTQVTVSS | high polyreactivity
28 | QVQLVESGGVLFQAGGSLRLSCAAAGFTFKYNAMGWYRQAPGKERELVASITSGATNYADSVKGRFTIARDNAKNTVSLQLTTLKPEETAVYDCAVVDVHYTRAKVGYAYGAYDYWGQCTQVTVSS | low polyreactivity
29 | QVQLVESGGVLLQAGGSLRLSCAASGSIFYPYAMGWYRQAPGKERELFAAITYIDADTYYADSVKGRFTISRDNAKNTVYLQMNSLKPEDTAVYYCAAEIPVYQGTGEDDYWGQGTQVTVSS | low polyreactivity
30 | QVQLVESGGVLVKAGGSLRLSCAASGRIFGYYAMGWYIQAPGKERELFAAITYSSGRTYYADSVKGRFTISRDNAKNTFYLQMNSLKPEDTAVYYCAARYHYYLSPATYYYWGQGTQVTVSS | high polyreactivity
31 | QVQLVESGGVLVQAGCSIRLSCSASGLTFIQYAMGWYRQAPGKERELVAAINSGASTRYADSVKGRFTISRDNAKNTVYLQMNSLKPEDTAVYYCNARLRRYTNRYYKYYYWGQGTQVNVSS | high polyreactivity
32 | QVQLVESGGVLVQAGGRLRISCAASGSTFVRNAMGWYRQAPGKEMELVAAISFSGGSTYYADSVKGRFTISRDTAKNTVYLQMNSLKPEDTAVYYCAKKTRYRSRGMNYWGQATQVTVSS | high polyreactivity
33 | QVQLVESGGVLVQAGGRLRLSCAASGLTFNENVMGWYRQAPGKERELVAAISTGASTYYADSVKGRFTISRDNAKNTVYLQMNSLKPEDTAVYYCAKRVNRWYGYWGQGTQVTVSS | high polyreactivity
34 | QVQLVESGGVLVQAGGSLPLSCAASGRILARNAMGWYRQAPGNERELVAAITSSTDSTYYADSVKGRFTISRDNAKNTVYLQMNSLKPEDTAVYYCATVVRLYRGRYSYDYWGQGTQVTVSS | high polyreactivity
35 | QVQLVESGGVLVQAGGSLRLICAASVRNFSTNSMGWYRQAPGKERELVASISFRGGRTYYADSVKGRFTISRDNAKNTVYLQMNSRKPEDNAVYYCVSGTKRTGYGYWGQGTQVTVSS | high polyreactivity
36 | QVQLVESGGVLVQAGGSLRLRCAASVRNYNSYMGWYRPAPGKERELVAAISWSSGTSTYYADSVKGRFTISRDNAKNTVYLQMNSLKPEDTEVYYCNAVDYFGPYPEEYDYWGQGTQVTVSS | low polyreactivity
37 | QVQLVESGGVLVQAGGSLRLSCAAMGWYRQAPGKERELVATITWSGGSTYYADSVKGRFTISRDNAKNTVYLQMNSLKPEDTAVYYCNSRATLLSPANTIRGYDYWGQGTQVTVSS | low polyreactivity
38 | QVQLVESGGVLVQAGGSLRLSCAASGRIFDIYAMGWYRQAPGKERELVAGITWRAGSTYYADSVKGRFTISRDNAKNTVYLQMNSLKPEDSAVYFCARDYSRHKGDYWGQGTQVTVSS | low polyreactivity
39 | QVQLVESGGVLVQAGGSLRLSCAASGRIFLEYAMGWYRQAPGKERELVAAISRGGGRTYYADSVKGRFTISRDNAKNTVYLLMNSLKPEDTAVYYCAAGLAKGYWASFAYRYDYWGQGTQVTVSS | high polyreactivity
40 | QVQLVESGGVLVQAGGSLRLSCAASGRIFWGYAMGWYRQAPGKERELVARLTSGGDTYYADSVKGRFTISRDNAKNTVDLQMNSLKPEDTAVYYCAKSTAVKPYAYRESGFIYDYRGQGTQVTVSS | low polyreactivity
41 | QVQLVESGGVLVQAGGSLRLSCAASGRTFDSYAMGWYRQAPGKERELVAAISSRGTRTYYADSVKWRFTISRDNAKNTVYLQMNSLKPEDTAVYYCNAGGAYEYDYWGQGTQVTVSS | high polyreactivity
